Measurements from PMC4335062, “Data-Driven Prediction and Design of bZIP Coiled-Coil Interactions” (PLoS Computational Biology, 2015).
“And” between values parts separate entries of the source, which are not always exact repeats. Identical values can stand only once. Where no end group is shown, it is not given here.

How the values were obtained:
ATF4 (human) [1] = molecular target: ATF4 (human) (UniProt P18848); assay: FRET or BRET; direct-binding FRET in 384-well plates; rhodamine-labelled design (acceptor) titrated 0 to 1 uM into 10 nM fluorescein-labelled bZIP (donor); 150 mM KCl, 50 mM potassium phosphate pH 7.4, 0.1% Tween-20, 0.1% BSA; 23 °C
ATF6B [2] = molecular target: T1, ATF6B (Homo sapiens, UniProt Q99941); assay: as above
MAFF (human) [3] = molecular target: MAFF (human) (UniProt Q9ULX9); assay: as above
MAF [4] = molecular target: T2, MAF (Homo sapiens, UniProt O75444); assay: as above
JUN [5] = molecular target: T3, JUN (Homo sapiens, UniProt P05412); assay: FRET or BRET; direct-binding FRET in 384-well plates; rhodamine-labelled design (acceptor) titrated 0 to 1 uM into 10 nM fluorescein-labelled bZIP (donor); 150 mM KCl, 50 mM potassium phosphate pH 7.4, 0.1% Tween-20, 0.1% BSA; 4 °C
ATF6B [6] = molecular target: T1, ATF6B; assay: as above
ATF5 (human) = ATF5 (human) (UniProt Q9Y2D1); assay: as above
[7] = molecular target: X-box binding protein 1 (human) (UniProt P17861); assay: as above
MAFB [8] = molecular target: T4, MAFB (Homo sapiens, UniProt Q9Y5Q3); assay: as above
MAFF (human) [9] = molecular target: MAFF (human) (UniProt Q9ULX9); assay: as above
ATF2 (human) = ATF2 (human) (UniProt P15336); assay: as above
MAF [10] = molecular target: T2, MAF; assay: as above
BATF2 (human) = BATF2 (human) (UniProt Q8N1L9); assay: FRET or BRET; direct-binding FRET in 384-well plates; rhodamine-labelled design (acceptor) titrated 0 to 1 uM into 10 nM fluorescein-labelled bZIP (donor); 150 mM KCl, 50 mM potassium phosphate pH 7.4, 0.1% Tween-20, 0.1% BSA; 37 °C
BATF (human) = BATF (human) (UniProt Q16520); assay: as above
MAFB [11] = molecular target: T4, MAFB; assay: as above
MAFF (human) [12] = molecular target: MAFF (human) (UniProt Q9ULX9); assay: as above
FOS [13] = molecular target: T5, FOS (Homo sapiens, UniProt P01100); assay: as above
[14] = molecular target: T6, X-box binding protein 1 (XBP1) bZIP construct, C-terminally fluoresceinated (human, UniProt P17861 70-133, fluorescein at the C-terminus); assay: FRET or BRET; direct-binding FRET at 37°C; 10 nM fluorescein-labelled bZIP (donor), rhodamine-labelled design (acceptor) titrated 0 to 1 μM; 150 mM KCl, 50 mM potassium phosphate pH 7.4, 0.1% Tween-20, 0.1% BSA; settings: both partners purified
T6 construct: source: previously described, donated by A.W. Reinke [18]
T6 sequence (looked up): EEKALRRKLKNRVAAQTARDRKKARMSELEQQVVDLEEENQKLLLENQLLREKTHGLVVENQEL

[15] = molecular target: off-target bZIPs of XBP1-d1 (among the 32 C-terminally fluoresceinated human bZIPs tested) (human); assay: as above
ATF4 (human) [16] = molecular target: ATF4 (human) (UniProt P18848); assay: FRET or BRET; direct-binding FRET in 384-well plates; rhodamine-labelled design (acceptor) titrated 0 to 1 uM into 10 nM fluorescein-labelled bZIP (donor); 150 mM KCl, 50 mM potassium phosphate pH 7.4, 0.1% Tween-20, 0.1% BSA; 37 °C
JUN [17] = molecular target: T3, JUN; assay: as above
JUN [18] = molecular target: T3, JUN; assay: FRET or BRET; direct-binding FRET in 384-well plates; rhodamine-labelled design (acceptor) titrated 0 to 1 uM into 10 nM fluorescein-labelled bZIP (donor); 150 mM KCl, 50 mM potassium phosphate pH 7.4, 0.1% Tween-20, 0.1% BSA; 23 °C
[19] = molecular target: Activating Transcription Factor (ATF) 3 (human) (UniProt P18847); assay: FRET or BRET; direct-binding FRET in 384-well plates; rhodamine-labelled design (acceptor) titrated 0 to 1 uM into 10 nM fluorescein-labelled bZIP (donor); 150 mM KCl, 50 mM potassium phosphate pH 7.4, 0.1% Tween-20, 0.1% BSA; 4 °C
FOS [20] = molecular target: T5, FOS; assay: as above
DBP (human) = DBP (human) (UniProt Q10586); assay: as above
ATF6B [21] = molecular target: T1, ATF6B; assay: FRET or BRET; direct-binding FRET in 384-well plates; rhodamine-labelled design (acceptor) titrated 0 to 1 uM into 10 nM fluorescein-labelled bZIP (donor); 150 mM KCl, 50 mM potassium phosphate pH 7.4, 0.1% Tween-20, 0.1% BSA; 37 °C
[22] = molecular target: X-box binding protein 1 (human) (UniProt P17861); assay: as above
NFE2 (human) = NFE2 (human) (UniProt Q16621); assay: as above
MAFG = MAFG (Homo sapiens, UniProt O15525); assay: as above
[23] = molecular target: Activating Transcription Factor (ATF) 3 (human) (UniProt P18847); assay: as above
CREB1 (human) = CREB1 (human) (UniProt P16220); assay: as above
NFE2L3 (human) = NFE2L3 (human) (UniProt Q9Y4A8); assay: as above

T3 sequence (P05412 whole entry): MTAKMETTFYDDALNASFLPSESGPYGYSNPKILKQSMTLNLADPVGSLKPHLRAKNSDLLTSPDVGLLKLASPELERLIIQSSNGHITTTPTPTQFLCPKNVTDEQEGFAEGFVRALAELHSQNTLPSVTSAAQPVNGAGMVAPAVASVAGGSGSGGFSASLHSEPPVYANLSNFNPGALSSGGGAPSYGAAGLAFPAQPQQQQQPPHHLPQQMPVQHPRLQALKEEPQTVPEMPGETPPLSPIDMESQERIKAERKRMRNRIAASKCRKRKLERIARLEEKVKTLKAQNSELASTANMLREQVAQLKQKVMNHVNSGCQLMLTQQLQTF
Sequence of MAFF (human) (Q9ULX9 whole entry): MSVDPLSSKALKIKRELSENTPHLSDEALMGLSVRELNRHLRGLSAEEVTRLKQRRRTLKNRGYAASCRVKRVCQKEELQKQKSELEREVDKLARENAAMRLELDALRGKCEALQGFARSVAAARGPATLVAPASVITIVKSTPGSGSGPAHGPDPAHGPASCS
T5 sequence (P01100 whole entry): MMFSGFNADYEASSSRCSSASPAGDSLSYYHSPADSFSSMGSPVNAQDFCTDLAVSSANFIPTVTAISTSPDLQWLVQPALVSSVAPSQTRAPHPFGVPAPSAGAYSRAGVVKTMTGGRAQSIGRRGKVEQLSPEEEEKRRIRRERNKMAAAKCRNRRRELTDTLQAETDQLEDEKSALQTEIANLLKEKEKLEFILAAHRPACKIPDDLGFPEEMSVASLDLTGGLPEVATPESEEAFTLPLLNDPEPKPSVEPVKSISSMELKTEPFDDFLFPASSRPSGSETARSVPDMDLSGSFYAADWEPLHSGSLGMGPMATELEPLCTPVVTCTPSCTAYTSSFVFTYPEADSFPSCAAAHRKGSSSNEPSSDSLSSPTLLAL
Sequence of ATF4 (human) (P18848 whole entry): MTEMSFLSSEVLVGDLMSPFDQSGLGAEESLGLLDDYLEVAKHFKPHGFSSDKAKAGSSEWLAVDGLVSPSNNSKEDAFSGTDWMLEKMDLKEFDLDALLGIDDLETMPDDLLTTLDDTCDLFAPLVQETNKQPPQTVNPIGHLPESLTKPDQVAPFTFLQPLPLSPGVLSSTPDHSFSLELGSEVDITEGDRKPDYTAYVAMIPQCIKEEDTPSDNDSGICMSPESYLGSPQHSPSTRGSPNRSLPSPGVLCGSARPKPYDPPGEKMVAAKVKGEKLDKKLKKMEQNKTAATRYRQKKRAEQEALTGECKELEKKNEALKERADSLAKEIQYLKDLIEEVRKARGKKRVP
T1 sequence (Q99941 whole entry): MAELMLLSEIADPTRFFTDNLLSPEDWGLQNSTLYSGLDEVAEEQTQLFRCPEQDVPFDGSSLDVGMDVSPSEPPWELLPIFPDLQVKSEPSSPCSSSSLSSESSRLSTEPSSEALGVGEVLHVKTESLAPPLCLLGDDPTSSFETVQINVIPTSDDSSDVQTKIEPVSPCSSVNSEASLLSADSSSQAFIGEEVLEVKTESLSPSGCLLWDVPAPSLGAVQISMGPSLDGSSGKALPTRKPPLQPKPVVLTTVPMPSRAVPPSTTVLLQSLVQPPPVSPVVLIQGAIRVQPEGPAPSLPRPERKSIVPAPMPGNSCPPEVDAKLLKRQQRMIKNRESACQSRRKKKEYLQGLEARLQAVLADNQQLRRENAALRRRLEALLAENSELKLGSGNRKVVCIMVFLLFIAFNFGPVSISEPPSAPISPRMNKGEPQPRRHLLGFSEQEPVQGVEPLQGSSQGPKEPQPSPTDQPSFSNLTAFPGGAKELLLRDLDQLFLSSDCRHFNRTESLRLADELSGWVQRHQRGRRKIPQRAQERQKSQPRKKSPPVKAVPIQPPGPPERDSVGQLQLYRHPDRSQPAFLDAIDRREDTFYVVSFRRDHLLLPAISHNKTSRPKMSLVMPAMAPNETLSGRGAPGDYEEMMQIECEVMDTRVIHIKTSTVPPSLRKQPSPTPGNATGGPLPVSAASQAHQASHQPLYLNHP
Sequence of ATF5 (human) (Q9Y2D1 whole entry): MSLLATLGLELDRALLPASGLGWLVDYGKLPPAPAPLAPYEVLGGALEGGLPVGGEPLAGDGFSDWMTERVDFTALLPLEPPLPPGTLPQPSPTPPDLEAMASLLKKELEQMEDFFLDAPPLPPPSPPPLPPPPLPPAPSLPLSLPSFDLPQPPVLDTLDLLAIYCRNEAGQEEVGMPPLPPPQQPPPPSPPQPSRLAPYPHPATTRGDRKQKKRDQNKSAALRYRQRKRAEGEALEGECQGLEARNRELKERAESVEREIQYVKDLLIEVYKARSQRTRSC
Sequence of X-box binding protein 1 (human) (P17861 whole entry): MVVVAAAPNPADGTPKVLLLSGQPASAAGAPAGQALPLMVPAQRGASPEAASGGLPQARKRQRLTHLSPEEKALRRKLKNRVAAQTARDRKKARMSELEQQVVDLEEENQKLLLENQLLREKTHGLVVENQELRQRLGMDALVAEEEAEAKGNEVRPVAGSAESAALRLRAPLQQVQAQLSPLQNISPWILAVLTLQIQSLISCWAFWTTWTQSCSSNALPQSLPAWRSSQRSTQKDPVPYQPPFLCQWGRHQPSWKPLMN
T2 sequence (O75444 whole entry): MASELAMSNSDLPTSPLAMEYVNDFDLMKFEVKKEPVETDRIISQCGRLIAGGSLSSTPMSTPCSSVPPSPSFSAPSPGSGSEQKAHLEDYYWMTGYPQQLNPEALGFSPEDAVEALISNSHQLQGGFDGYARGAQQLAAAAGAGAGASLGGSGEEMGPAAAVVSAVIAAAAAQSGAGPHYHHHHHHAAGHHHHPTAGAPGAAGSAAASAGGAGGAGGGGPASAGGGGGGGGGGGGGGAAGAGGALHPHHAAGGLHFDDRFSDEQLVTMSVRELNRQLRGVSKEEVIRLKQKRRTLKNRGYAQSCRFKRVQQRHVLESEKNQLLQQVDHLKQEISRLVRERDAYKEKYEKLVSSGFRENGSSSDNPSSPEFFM
Sequence of Activating Transcription Factor (ATF) 3 (human) (P18847 whole entry): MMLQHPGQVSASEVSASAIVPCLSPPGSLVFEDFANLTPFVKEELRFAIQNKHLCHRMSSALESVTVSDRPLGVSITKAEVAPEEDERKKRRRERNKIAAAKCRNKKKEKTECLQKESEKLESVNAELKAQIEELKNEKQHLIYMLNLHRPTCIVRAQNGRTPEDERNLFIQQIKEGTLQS
T4 sequence (Q9Y5Q3 whole entry): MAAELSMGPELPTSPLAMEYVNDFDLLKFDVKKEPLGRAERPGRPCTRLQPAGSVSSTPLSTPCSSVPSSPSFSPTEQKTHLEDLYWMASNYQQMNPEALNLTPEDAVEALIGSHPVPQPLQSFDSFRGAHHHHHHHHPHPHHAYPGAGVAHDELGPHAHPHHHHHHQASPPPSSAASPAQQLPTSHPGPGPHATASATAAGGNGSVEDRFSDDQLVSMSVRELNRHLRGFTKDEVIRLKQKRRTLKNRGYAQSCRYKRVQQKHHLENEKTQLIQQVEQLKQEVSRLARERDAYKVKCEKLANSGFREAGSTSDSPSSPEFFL
Sequence of MAFG (O15525 whole entry): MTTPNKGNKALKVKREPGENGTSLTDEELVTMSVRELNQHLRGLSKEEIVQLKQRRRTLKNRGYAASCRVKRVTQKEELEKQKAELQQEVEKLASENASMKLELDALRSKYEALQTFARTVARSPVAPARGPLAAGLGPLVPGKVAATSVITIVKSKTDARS
Sequence of CREB1 (human) (P16220 whole entry): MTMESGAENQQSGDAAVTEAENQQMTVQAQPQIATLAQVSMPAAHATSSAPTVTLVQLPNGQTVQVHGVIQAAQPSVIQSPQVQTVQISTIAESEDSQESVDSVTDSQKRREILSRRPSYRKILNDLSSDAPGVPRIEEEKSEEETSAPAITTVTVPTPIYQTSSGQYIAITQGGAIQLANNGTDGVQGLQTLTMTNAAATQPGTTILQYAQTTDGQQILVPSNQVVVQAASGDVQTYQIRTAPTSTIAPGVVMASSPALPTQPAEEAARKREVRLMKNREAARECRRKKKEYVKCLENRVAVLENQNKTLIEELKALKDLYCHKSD
Sequence of ATF2 (human) (P15336 whole entry): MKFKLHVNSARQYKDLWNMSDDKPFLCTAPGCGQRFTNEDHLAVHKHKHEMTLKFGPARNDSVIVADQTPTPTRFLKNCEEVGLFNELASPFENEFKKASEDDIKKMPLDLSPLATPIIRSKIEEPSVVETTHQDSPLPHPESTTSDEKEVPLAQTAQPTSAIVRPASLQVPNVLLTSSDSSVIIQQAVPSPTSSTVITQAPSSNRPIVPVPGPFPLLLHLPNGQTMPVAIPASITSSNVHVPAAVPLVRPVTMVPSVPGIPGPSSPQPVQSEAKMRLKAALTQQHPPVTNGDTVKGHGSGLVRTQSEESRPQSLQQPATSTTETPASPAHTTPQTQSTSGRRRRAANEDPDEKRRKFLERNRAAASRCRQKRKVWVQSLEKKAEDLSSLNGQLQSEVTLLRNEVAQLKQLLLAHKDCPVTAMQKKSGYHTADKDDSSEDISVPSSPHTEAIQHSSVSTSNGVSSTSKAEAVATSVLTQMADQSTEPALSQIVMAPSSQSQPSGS
Sequence of BATF (human) (Q16520 whole entry): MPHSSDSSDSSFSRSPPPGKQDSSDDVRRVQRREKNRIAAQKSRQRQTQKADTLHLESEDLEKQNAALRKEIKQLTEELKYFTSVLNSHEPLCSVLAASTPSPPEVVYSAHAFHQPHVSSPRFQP
Sequence of BATF2 (human) (Q8N1L9 whole entry): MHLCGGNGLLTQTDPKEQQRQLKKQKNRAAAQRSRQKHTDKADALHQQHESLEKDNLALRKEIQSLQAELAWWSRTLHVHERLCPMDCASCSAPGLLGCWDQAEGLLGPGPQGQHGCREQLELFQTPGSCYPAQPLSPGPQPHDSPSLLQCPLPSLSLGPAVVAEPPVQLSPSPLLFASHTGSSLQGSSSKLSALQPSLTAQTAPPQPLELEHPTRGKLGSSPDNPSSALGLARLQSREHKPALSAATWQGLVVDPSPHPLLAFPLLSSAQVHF

B1: ATF5-d1 labeled at the N-terminus (designed binder)
chain: GESKEYKKGSGSC(Rhodamine Red C2‑maleimide)GKRIAYLRQRIAELRNENHVLESRIQRMEKEKDALQQDRDHLEYEL
Kd (ATF4 (human) [1]): 8.5 nM
Kd (ATF6B [2]): > 5000 nM
Kd (MAFF (human) [3]): > 5000 nM
Kd (MAF [4]): > 5000 nM
Kd (JUN [5]): > 5000 nM
Kd (ATF6B [6]): > 5000 nM
Kd (ATF5 (human)): 2.9 nM and 6.9 nM
Kd [7]: > 5000 nM
Kd (MAFB [8]): > 5000 nM
Kd (MAFF (human) [9]): > 5000 nM
Kd (ATF2 (human)): > 5000 nM
Kd (MAF [10]): > 5000 nM
Kd (BATF2 (human)): > 5000 nM
Kd (BATF (human)): > 5000 nM
Kd (MAFB [11]): > 5000 nM
Kd (MAFF (human) [12]): 116 nM
Kd (FOS [13]): > 5000 nM

B2: XBP1-d1, rhodamine-labelled at the C-terminus (designed binder)
chain: GESKEYKKGSGSEREAQLENRVAHLKEKNQELKAQNLHLKEALSEAQNRNQELKNDAGC(Rhodamine Red C2‑maleimide)
notes: solubility linker after the His tag; added at the C-terminus for labelling; built from heptads of native and previously designed bZIPs; source: E. coli RP3098, purified (Ni-NTA under denaturing conditions, reverse-phase HPLC)
Kd [14]: 172 ± 65 nM
Kd [15]: > 5000 nM

B3: JUN-d1 labeled at the C-terminus (designed binder)
chain: GESKEYKKGSGSSIAATLEKEEANLEKMNKKLAAEIESLLKEKDKLESVLNYHEGC
modifications: also: Cys56: Rhodamine Red C2-maleimide or fluorescein-5-maleimide, by assay
Kd (ATF4 (human) [16]): 557 nM and 529 nM and 543 nM
Kd (JUN [17]): 5.3 nM and 5.5 nM and 6.6 nM
Kd (JUN [18]): 1.1 nM and 1.2 nM and 1 nM
Kd [19]: > 5000 nM
Kd (FOS [20]): > 5000 nM
Kd (DBP (human)): > 5000 nM
Kd (ATF6B [21]): > 5000 nM
Kd [22]: > 5000 nM
Kd (NFE2 (human)): > 5000 nM
Kd (MAFF (human) [12]): > 5000 nM
Kd (MAFG): > 5000 nM
Kd [23]: > 5000 nM
Kd (CREB1 (human)): > 5000 nM
Kd (NFE2L3 (human)): > 5000 nM
Kd (FOS [13]): > 5000 nM
